# Laboratory results: IntAct's records for PubMed 34063696
# B1: BolA-like protein 3 (Homo sapiens), Q53S33 (parent)
# chain: MAAWSPAAAAPLLRGIRGLPLHHRMFATQTEGELRVTQILKEKFPRATAIKVTDISGGCGAMYEIKIESEEFKEKRTVQQHQMVNQALKEEIKEMHGLRIFTSVPKR
# partner: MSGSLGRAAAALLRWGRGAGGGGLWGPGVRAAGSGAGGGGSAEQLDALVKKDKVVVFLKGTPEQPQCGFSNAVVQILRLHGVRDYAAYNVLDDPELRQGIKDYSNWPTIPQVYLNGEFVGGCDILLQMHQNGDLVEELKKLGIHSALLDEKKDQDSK
# Variants of: B1
# Conditions: with glrx5_human GLRX5, Q86SX6
row,effect of a mutation on the interaction,Variant
1,with no effect,C59Y
